The values that follow come from publication PMC3306252 (Nature, 2012).

In general, Kd refers to the concentration at which binding is half-saturated. Read a low Kd as higher affinity. The term stoichiometry N denotes a count of units in the complex or per binding partner.

Data set [1] deals with BODIPY-FL Srs2(1107-1174) (S. cerevisiae) (UniProt P12954). Briefly: fluorescence polarisation. Background: In fluorescence polarisation assays a small probe gives low polarisation when free and higher when bound to something large.
Data set [2] deals with Srs2(1137-1174) (S. cerevisiae) (UniProt P12954). Briefly: fluorescence polarisation.
Data set [3] concerns the molecule itself. Briefly: crystal structure.
Data set [4] has as its target T1, Srs2(1107-1174) Q1149E (S. cerevisiae, UniProt P12954 1107-1174, Q1149E, BODIPY-FL conjugated (FP was done with BODIPY-FL conjugated Srs2)).
T1 sequence: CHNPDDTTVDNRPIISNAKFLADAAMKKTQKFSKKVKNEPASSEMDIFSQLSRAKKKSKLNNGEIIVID
The data set is described as follows: fluorescence polarisation.

Data set [5] addresses T2, Srs2(1107-1174) D1151A (S. cerevisiae, UniProt P12954 1107-1174, D1151A, BODIPY-FL conjugated (FP was done with BODIPY-FL conjugated Srs2)).
T2 sequence: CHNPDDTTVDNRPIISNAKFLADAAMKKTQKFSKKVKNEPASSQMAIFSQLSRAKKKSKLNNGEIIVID
Briefly: fluorescence polarisation.

The target of data set [6] is T3, Srs2(1107-1174) I1152A (S. cerevisiae, UniProt P12954 1107-1174, I1152A, BODIPY-FL conjugated (FP was done with BODIPY-FL conjugated Srs2)).
T3 sequence: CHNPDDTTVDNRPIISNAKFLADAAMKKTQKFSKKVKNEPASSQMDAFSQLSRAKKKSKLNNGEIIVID
The data set is described as follows: fluorescence polarisation.

Data set [7] has as its target T4, Srs2(1107-1174) F1153A (S. cerevisiae, UniProt P12954 1107-1174, F1153A, BODIPY-FL conjugated (FP was done with BODIPY-FL conjugated Srs2)).
T4 sequence: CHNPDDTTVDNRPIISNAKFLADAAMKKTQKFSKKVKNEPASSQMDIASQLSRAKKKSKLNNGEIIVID
The data set is described as follows: fluorescence polarisation.

For data set [8], the target named is T5, Srs2(1107-1174) Q1155E (S. cerevisiae, UniProt P12954 1107-1174, Q1155E, BODIPY-FL conjugated (FP was done with BODIPY-FL conjugated Srs2)).
T5 sequence: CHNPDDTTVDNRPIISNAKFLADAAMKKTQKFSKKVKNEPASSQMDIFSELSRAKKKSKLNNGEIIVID
The data set is described as follows: fluorescence polarisation.

Data set [9] concerns the target T6, Srs2(1107-1174) L1156A (S. cerevisiae, UniProt P12954 1107-1174, L1156A, BODIPY-FL conjugated (FP was done with BODIPY-FL conjugated Srs2)).
T6 sequence: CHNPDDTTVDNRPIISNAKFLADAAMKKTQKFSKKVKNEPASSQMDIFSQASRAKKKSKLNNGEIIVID
Briefly: fluorescence polarisation.

For data set [10], the target named is T7, His6-Eco1 (S. cerevisiae, UniProt P43605 1-281).
T7 sequence (looked up): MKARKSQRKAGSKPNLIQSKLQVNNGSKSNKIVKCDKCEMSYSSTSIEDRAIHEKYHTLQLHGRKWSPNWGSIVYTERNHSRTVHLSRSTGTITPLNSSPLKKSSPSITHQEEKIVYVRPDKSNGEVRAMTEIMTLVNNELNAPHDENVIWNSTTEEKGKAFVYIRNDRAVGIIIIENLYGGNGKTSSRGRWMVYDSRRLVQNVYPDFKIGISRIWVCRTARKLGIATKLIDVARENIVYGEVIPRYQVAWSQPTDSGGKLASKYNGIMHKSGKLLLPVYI
The data set is described as follows: pull-down.

Data set [11] deals with the molecule itself. The data set is described as follows: crystal structure. This is another data set of the same source.

The molecule “GST-SUMO (from UniProt Q12306 1-101) (natural protein)” had an equilibrium dissociation constant (Kd) in [1] of 877 nM. For the same molecule, the fold weaker than Srs2(1107-1174) in data set [2] is 4 fold.
In the case of “PCNA (yeast proliferating cell nuclear antigen, trimer; variant not named) (from UniProt P15873 1-258) (natural protein)”, the dissociation constant (Kd) in data set [1] was 169 nM. The fold weaker than Srs2(1107-1174) in [2] was determined as 3 fold.
In [1], “PCNA^mono (N-ethylmaleimide-treated PCNA) (from UniProt P15873 1-258) (natural protein)” registered a fold worse than PCNA^tri of 6.5 fold.
“SUMO_K127-PCNA^mono (PCNA K164R) (from UniProt P15873 1-258; Q12306 19-98) (complex)”: the Kd in data set [1] turned out to be 14 nM.
Same read-out and setting: next, “SUMO_K127-PCNA^tri (PCNA K164R) (from UniProt P15873 1-258; Q12306 19-98) (complex)”: 25.1 nM; “SUMO_K164-PCNA^mono K127G (from UniProt P15873 1-258; Q12306 19-98) (complex)”: 79 nM.
Turning to “SUMO_K164-PCNA^tri K127G (from UniProt P15873 1-258; Q12306 19-98) (complex)”, the Kd in data set [1] turned out to be 26.3 nM. The same molecule had a fold tighter than Srs2(1107-1174) in data set [2] of 8 fold.

B1: PCNA^tri K127G (natural protein, budding yeast)
chain: MLEAKFEEASLFKRIIDGFKDCVQLVNFQCKEDGIIAQAVDDSRVLLVSLEIGVEAFQEYRCDHPVTLGMDLTSLSKILRCGNNTDTLTLIADNTPDSIILLFEDTKKDRIAEYSLKLMDIDADFLGIEELQYDSTLSLPSSEFSKIVRDLSQLSDSINIMITKETIKFVADGDIGSGSVIIKPFVDMEHPETSIKLEMDQPVDLTFGAKYLLDIIKGSSLSDRVGIRLSSEAPALFQFDLKSGFLQFFLAPKFNDEE
For the molecule B1, in data set [3], the “stoichiometry N” value came to 3. Further, the “fold defect in Kd against wild-type Srs2(1107-1174)” value in data set [4] is 3 fold; in data set [5], 10 fold; in data set [6], 60 fold. In addition, the “fold reduced affinity against wild-type Srs2(1107-1174)” value in [7] is 9 fold; in [8], 31 fold; in data set [9], 73 fold.

B2: PCNA FLKI(125-128)AAAA (natural protein, budding yeast)
chain: MLEAKFEEASLFKRIIDGFKDCVQLVNFQCKEDGIIAQAVDDSRVLLVSLEIGVEAFQEYRCDHPVTLGMDLTSLSKILRCGNNTDTLTLIADNTPDSIILLFEDTKKDRIAEYSLKLMDIDADAAAAEELQYDSTLSLPSSEFSKIVRDLSQLSDSINIMITKETIKFVADGDIGSGSVIIKPFVDMEHPETSIKLEMDQPVDLTFGAKYLLDIIKGSSLSDRVGIRLSSEAPALFQFDLKSGFLQFFLAPKFNDEE
On to B2, for which the binding result in [10] is “binds”.

B3: PCNA K127G, NEM-modified (the PCNA part of SUMO_K164-PCNA^mono) (natural protein, budding yeast)
chain: MLEAKFEEASLFKRIIDGFKDCVQLVNFQCKEDGIIAQAVDDSRVLLVSLEIGVEAFQEYRCDHPVTLGMDLTSLSKILRCGNNTDTLTLIADNTPDSIILLFEDTKKDRIAEYSLKLMDIDADFLGIEELQYDSTLSLPSSEFSKIVRDLSQLSDSINIMITKETIKFVADGDIGSGSVIIKPFVDMEHPETSIKLEMDQPVDLTFGAKYLLDIIKGSSLSDRVGIRLSSEAPALFQFDLKSGFLQFFLAPKFNDEE
modifications: N-ethylmaleimide on C22 and C81; K164 conjugated to SUMO G98
Consider B3, for which, in data set [11], the binding result was “binds”.
